Measured values reported in the RNAGym collection of RNA variant scans (doi:10.1073/pnas.2313332121).
Fewer inactive variants are shown than the library holds.

B1: TPR 5TU (parent)
chain: GGAUCUUCUCGAUCUAACAAAAAAGACAAAUCUGCCACAAAGCUUGAGAGCAUCUUCGGAUGCAGAGGCGGCAGCCUUCGGUGGCGCGAUAGCGCCAACGUUCUCAACUAUGACACGCAAAACGCGUGCUCCGUUGAAUGGAGUUUAUCAUG

Variants of: B1
Experiment: polymerase ribozyme fitness, log enrichment relative to wild type (log ratio); higher = more active; in vitro selection for triplet polymerase activity
Procedure, shortened: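 Fitness measures genotype enrichment against wild-type enrichment on a logarithmic scale, with inverse-variance-weighted averaging of replicates. The logarithm is base 2, and genotypes were kept only with ≥10 input reads and ≥1 read per output in Illumina sequencing. The sequenced libraries came from one triplicate in vitro selection round, including frozen incubation at −7 °C, of PCR-built, transcribed mutant libraries of each subunit of a heterodimeric triplet polymerase ribozyme.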

| Variant | polymerase ribozyme fitness (log ratio) |
| --- | --- |
| A52G G83A A121G | -0.142 |
| U53A C149U | -1.57 |
| C54G U55A G58U | 0.0801 |
| C54A A115C | -1.87 |
| U53A C131A | -3.17 |
| A52G G141U | 1 |
| U53A G58C A66C G84A A91G U102G A119U C132A | ≤ -4.2 |
| A52U G68A U82G G133U A137C A142C | ≤ -4.2 |
| A52C U56C C103G G143C | -4.12 |
| C54U A60C C75A A91U C96U A97G A107C G136A A137U | ≤ -4.2 |
| C54A C75U C93U | -2.29 |
| A52G G84A G94U G143A | ≤ -4.2 |
| A52G G94C U102C C131U | -1.64 |
| A52C U56A C96A A110G | -3.99 |
| A52C U53G C72U G83A G124A | ≤ -4.2 |
| C54A G70C G88A C93G U134A U146A | ≤ -4.2 |
| A52G U53A A119U G126C | 0.147 |
| A52G A66C G84C C85A G126U | ≤ -4.2 |
| U53G U61A | -3.21 |
| C54A U56A C93A A98U A138C U151G | ≤ -4.2 |
| U53C A97U C114G U145A | -3.74 |
| A52U U61G G80C C87G G94U A121U | ≤ -4.2 |
| C54G C76A C93G C123U | ≤ -4.2 |
| U53A A73G G86A G92U C95U G143U | ≤ -4.2 |

| Variant | polymerase ribozyme fitness (log ratio) |
| --- | --- |
| A52G C69U G143A | -2.71 |
| U53G U61A A97G A113U | -4.18 |
| U53G U55A | -1.92 |
| U53G G68A | ≤ -4.2 |
| U53A C95U A138C | ≤ -4.2 |
| C54G C95G A107U C108G G143A U145C | ≤ -4.2 |
| A52G G92A | -3.13 |
| A52G G92C | -1.46 |
| A52G U148G | -4.18 |
| U53A C54U C85U G141U | -1.21 |
| C54U C63U G94U G143A | -2.26 |
| U53A A73G G74C C85A U90C | ≤ -4.2 |
| U53A G62C G84A G136A | -3.58 |
| A52U U55A U56G A66G C99A C132U | ≤ -4.2 |
| U53G C69A C99U C118A | ≤ -4.2 |
| U53A G74A U77A C96U G126C | ≤ -4.2 |
| U53A G86A A91C G128C | ≤ -4.2 |
| C54G A147C | -1.47 |
| U53A U102G G126A | -3.76 |
| A52G C87U | -1.3 |
| A52U G84C C116U U146G | -4.11 |
| A52G A64U U101G A107C C125G | ≤ -4.2 |
| C54G C75G C87A | ≤ -4.2 |
| A52G C57A A73U | -0.666 |

| Variant | polymerase ribozyme fitness (log ratio) |
| --- | --- |
| A52U U109G | -3.48 |
| U53C C54U C96A A120U | -0.901 |
| A52U C129U | -2.91 |
| U53A U61C C79G A115U A150U | ≤ -4.2 |
| U53G A73C G83U G117U | ≤ -4.2 |
| A52C G83C | -2.29 |
| U53G G74A C114G | ≤ -4.2 |
| C54G G86U | -3.24 |
| U53C G58C C93U C96G G140A | -4.1 |
| U53A G136U U144G | -1.85 |
| U53A C76A G84C A122U | ≤ -4.2 |
| A52C G59A | -1.18 |
| U53G G92C C93A | ≤ -4.2 |
| C54A C96U A113G | -3.11 |
| U53G A107C | ≤ -4.2 |
| A52G C79G | -3.71 |
| A52C G88A C95U C99U A110U | -4.07 |
| A52G G74C C87A A113U C125A G140U | ≤ -4.2 |
| C54U C69G C85G | -3.9 |
| C54U A89C C131U | 0.237 |
| U53A G84U | -1.26 |
| U53A G84A | -2.38 |
| A52G G58C G68C | ≤ -4.2 |
| C54G G133C | -2.55 |

| Variant | polymerase ribozyme fitness (log ratio) |
| --- | --- |
| A52C G80C G83U | ≤ -4.2 |
| A52G G86A C93A G143A | ≤ -4.2 |
| C54A G70A | -3.79 |
| A52G U56G G86A C95U A142C | ≤ -4.2 |
| U53A C99U | -2.58 |
| C54G G94A | -1.68 |
| A52C G152U | -3.45 |
| U53G C54G C96G C114U | ≤ -4.2 |
| A52U G74A G80C C95U A147C | ≤ -4.2 |
| U53A C57G C95G | -4.01 |
| C54G A73G C79A U82G C87U A122U G141C | ≤ -4.2 |
| U53C C57A C95U A98G U104A | -0.528 |
| C54G C75U G94A | -1.51 |
| A52G C108G | ≤ -4.2 |
| A52U A137G | -2.89 |
| U53A G70A G88A C96U C123U | ≤ -4.2 |
| A52U G94A G133U G143U | -3.88 |
| C54G G84A | -1.74 |
| A52U C79A A110U C116U A120U C131G | ≤ -4.2 |
| U53G C93U | -1.92 |
| U53A C54A U82A G141C | -2.84 |
| A52G G58C G59C C96G A150U | -3.59 |
| A52G C96G G112C | ≤ -4.2 |
| A52U C123G | -1.97 |

| Variant | polymerase ribozyme fitness (log ratio) |
| --- | --- |
| C54A C105G U130C | -2.7 |
| A52G C57A C79U C85A C116U A122G | ≤ -4.2 |
| U53G C79A C87A U102G | ≤ -4.2 |
| C54A U82C U146C | -0.537 |
| C54G C75G G86U G92C G124U C125A A137C U151C | ≤ -4.2 |
| U53A G59C A60G G84A | -1.76 |
| A52G C87U C116G A122C G136U | -2.85 |
| A52G | -0.491 |
| A52U | -1.49 |
| A52U C95U | -1.52 |
| A52U A89U C96A | -2.98 |
| U53A C95G C96G U146A | -3.91 |
| A52C G67A G74U G86U C93U A115G | ≤ -4.2 |
| C54G C85A G92C G133U U146G | ≤ -4.2 |
| A52G G83C C93U | -3.66 |
| A52G C95G A107G A120G U139C | -4.13 |
| C54A C95U A106C | -2.19 |
| A52U U53G G88C A91C | ≤ -4.2 |
| U53C C118U C129G G141A | ≤ -4.2 |
| C54G C93A | -4.19 |
| C54G G83A C96U A110G C132U A142C | ≤ -4.2 |
| C54G C76U U77C C87A G126U | ≤ -4.2 |
| U53G G59C U61A G88C G94U | ≤ -4.2 |
| A52G C57A G58A G83U C95U | -0.758 |

| Variant | polymerase ribozyme fitness (log ratio) |
| --- | --- |
| U53A G126A | -0.879 |
| U53A G126U | 0.134 |
| C54G G140U | -3.63 |
| U53A C93G A98G | ≤ -4.2 |
| C54G C63G C93U A115U C149G | ≤ -4.2 |
| U53G C103A C105G U130A | ≤ -4.2 |
| A52G G58U | -0.0148 |
| C54G G59A C76A C85G A121C C123A U127G G140C G143U A150C | ≤ -4.2 |
| U53A G59A C85A G88A U151A | ≤ -4.2 |
| A52G G83A | -0.0714 |
| C54A G59U A60C G83A C116A | -2.11 |
| U53A A73C | -3.99 |
| U53A C95A A120G | -1.57 |
| A52G G83U C96A U101C G124A U145A C149U | -2.95 |
| U53A U55A C96A U127C A138U | ≤ -4.2 |
| C54A U56G U78G U82G C114A U144C | ≤ -4.2 |
| U53A G58A C93U C116U | -0.438 |
| A52G G92C G117U A137G U144A | ≤ -4.2 |
| C54A A121U G141C | -1.65 |
| U53A G71C G88A | ≤ -4.2 |
| A52U C87A A97U U127C A142C | ≤ -4.2 |
| A52G A60U G71A A121U U135G U148A | -4.18 |
| C54A U55A | -1.91 |
| A52U A60G C76U A89U C96U | -3.8 |

| Variant | polymerase ribozyme fitness (log ratio) |
| --- | --- |
| C54A U102A | -2.71 |
| U53A A64G | -3.41 |
| A52U U56A G83C G84A C99G A106U U144A | ≤ -4.2 |
| U53G C75G C76U C96A A115C | ≤ -4.2 |
| U53A A91G G126U G140U | ≤ -4.2 |
| C54A A91G U104G U127A G152A | ≤ -4.2 |
| C54G U55A G58A C99G C132A | ≤ -4.2 |
| A52G U55A G59C G86U A142C G143C | ≤ -4.2 |
| C54G A89U C95U A97C | -2.48 |
| U53A G83A C103U C132U | -3.25 |
| U53C | -0.375 |
| U53G | -1.68 |
| U53A | -0.874 |
| A52U U77G G84C G128A G143A | ≤ -4.2 |
| C54A A73U C87U | -3.49 |
| C54A C85U C105U A142C | -2.12 |
| A52G C93G | -3.95 |
| A52G C93A | -3.25 |
| A52G C93U | -1.74 |
| U53A C103U | -0.534 |
| C54A C96U | -1.43 |
| U53G C54A | -2.07 |
| U53A G128C A137C U148G C149G | ≤ -4.2 |
